This test has as its target T1, mouse IL-4Rα (mouse, UniProt P16382 26-233, limits assumed).
T1 construct: also called mouse IL-4Rα protein; mIL-4Rα
T1 sequence (looked up): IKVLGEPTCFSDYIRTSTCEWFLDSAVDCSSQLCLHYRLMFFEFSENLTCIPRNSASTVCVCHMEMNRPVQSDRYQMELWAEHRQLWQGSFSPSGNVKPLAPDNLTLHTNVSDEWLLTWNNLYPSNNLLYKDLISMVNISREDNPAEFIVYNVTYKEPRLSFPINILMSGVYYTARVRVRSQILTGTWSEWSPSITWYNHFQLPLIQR
As to the kind of experiment: not described (stated in Materials and Methods of Example 4).

B1: mAb1 (human anti-IL-4R antibody H1H098-b) (antibody, V domains shown)
VH: EVQLVESGGGLEQPGGSLRLSCAGSGFTFRDYAMTWVRQAPGKGLEWVSSISGSGGNTYYADSVKGRFTISRDNSKNTLYLQMNSLRAEDTAVYYCAKDRLSITIRPRYYGLDVWGQGTTVTVS
VL: DIVMTQSPLSLPVTPGEPASISCRSSQSLLYSIGYNYLDWYLQKSGQSPQLLIYLGSNRASGVPDRFSGSGSGTDFTLKISRVEAEDVGFYYCMQALQTPYTFGQGTKLEIK
notes: also called anti-IL-4R antibody mAb1; REGN668/SAR231893
Turning to B1, the binding result was “no binding”.
